Patent publication US20250223314A1

Molecular target: Tocilizumab (IgG1)
Experiment: SPR (Biacore), tocilizumab immobilised via EDC/NHS on CM5 chip, receptor as analyte

| Substance | Kd [nM] |
| --- | --- |
| Deglycosylated D2 (Man9 deglycosylated using EndoH) (receptor) | 17.6 |
| Man9 (Pichia-produced FcγRIIIa domain 2 ligand with Mannose 9 glycosylation) (receptor) | 0.478 |
